Values quoted from earlier work as cited in EP0314042A2, “Novel copolymers and superoxide dismutase modified with said copolymers” (KURARAY CO., LTD., priority 1987, dated 1989).

Legend:
[1] = as compared with SOD; cited from earlier work
[2] = result in words, relative to SOD; cited from earlier work

Substance | enzymatic activity of SOD [1] | plasma half-life [2]
Ficoll-modified SOD: SOD converted to a giant molecule through modification with Ficoll | markedly decreased | –
inulin-modified SOD: SOD modified with inulin (Japanese Kokai Tokkyo Koho No. 58-32826) | reduced | much prolonged
polyethylene glycol-modified-SOD: SOD converted to a giant molecule through modification with polyethylene glycol | markedly decreased | –
